The target of this assay is formaldehyde-fixed human platelets. As to the kind of experiment: inhibition of vWF/botrocetin-induced agglutination of fixed human platelets.

Some results are limits rather than exact numbers.

HSA-vWF 470-704 C471,474→G showed an IC50 of less than 0.01 µM.
In the case of HSA-vWF 470-713 C471,474→G, the concentration for half-maximal inhibition (IC50) came out at 0.02 µM.

The term IC50 denotes the midpoint of a concentration-inhibition curve. A high value points to weaker potency.

The values above are taken from patent US7056701.
